# Literature values as cited in PMC11558822, “Myc 9aaTAD activation domain binds to mediator of transcription with superior high affinity” (Molecular Medicine, 2024).
# Target: CBP KIX (Homo sapiens) (UniProt Q92793)
# Test: ITC
# Sequence of CBP KIX (Homo sapiens) (Q92793 584-669): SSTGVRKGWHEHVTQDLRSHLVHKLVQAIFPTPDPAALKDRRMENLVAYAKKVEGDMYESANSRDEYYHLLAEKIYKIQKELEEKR
substance,measurement,value
MLL 9aaTAD (from UniProt Q03164),Kd,1400 nM
